Experimental data reported in patent US20210388087A1 (Chugai, published 2021).
Substitutions are numbered along the chain they refer to. Names and notes keep the numbering of the source.

B1: CE115HA000 K52bQ one-arm antibody (antibody, human IgG1, kappa, L234A L235A, N297A, name in Kabat numbering)
heavy: QVQLVESGGGVVQPGRSLRLSCAASGFTFSNAWMHWVRQAPGKGLEWVAQIKAQSNNYATYYAESVKGRFTISRDDSKNSLYLQMNSLKTEDTAVYYCRYVHYGAYYGVDAWGQGTTVTVSSASTKGPSVFPLAPSSKSTSGGTAALGCLVKDYFPEPVTVSWNSGALTSGVHTFPAVLQSSGLYSLSSVVTVPSSSLGTQTYICNVNHKPSNTKVDKKVEPKSCDKTHTCPPCPAPEAAGGPSVFLFPPKPKDTLMISRTPEVTCVVVDVSHEDPEVKFNWYVDGVEVHNAKTKPREEQYASTYRVVSVLTVLHQDWLNGKEYKCKVSNKALPAPIEKTISKAKGQPREPQVYTLPPSRCELTKNQVSLSCAVKGFYPSDIAVEWESNGQPENNYKTTPPVLDSDGSFFLVSKLTVDKSRWQQGNVFSCSVMHEALHNHYTQKSLSLSPDYKDDDDK
chain: EPKSSDKTHTCPPCPAPELLGGPSVFLFPPKPKDTLMISRTPEVTCVVVDVSHEDPEVKFNWYVDGVEVHNAKTKPREEQYNSTYRVVSVLTVLHQDWLNGKEYKCKVSNKALPAPIEKTISKAKGQPREPQVCTLPPSRDELTKNQVSLWCLVKGFYPSDIAVEWESNGQPENNYKTTPPVLDSDGSFFLYSKLTVDKSRWQQGNVFSCSVMHEALHNRYTQKSLSLSP
light: DIVMTQSPLSLPVTPGEPASISCRSSQSLVHSNRNTYLHWYQQKPGQAPRLLIYKVSNRFSGVPDRFSGSGSGTDFTLKISRVEAEDVGVYYCGQGTQVPYTFGQGTKLEIKRTVAAPSVFIFPPSDEQLKSGTASVVCLLNNFYPREAKVQWKVDNALQSGNSQESVTEQDSKDSTYSLSSTLTLSKADYEKHKVYACEVTHQGLSSPVTKSFNRGEC
B2: CE115HA000 K52bR one-arm antibody (antibody, human IgG1, kappa, L234A L235A, N297A, name in Kabat numbering)
heavy: B1 heavy with Q54R
chain: B1 chain
light: B1 light
B3: CE115HA000 K52bS one-arm antibody (antibody, human IgG1, kappa, L234A L235A, N297A, name in Kabat numbering)
heavy: B1 heavy with Q54S
chain: B1 chain
light: B1 light
B4: CE115HA000 K52bY one-arm antibody (antibody, human IgG1, kappa, L234A L235A, N297A, name in Kabat numbering)
heavy: B1 heavy with Q54Y
chain: B1 chain
light: B1 light
B5: CE115HA000 K64A one-arm antibody (antibody, human IgG1, kappa, L234A L235A, N297A, name in Kabat numbering)
heavy: B1 heavy with Q54K, K67A
chain: B1 chain
light: B1 light
B6: CE115HA000 K64D one-arm antibody (antibody, human IgG1, kappa, L234A L235A, N297A, name in Kabat numbering)
heavy: B1 heavy with Q54K, K67D
chain: B1 chain
light: B1 light
B7: CE115HA000 K64E one-arm antibody (antibody, human IgG1, kappa, L234A L235A, N297A, name in Kabat numbering)
heavy: B1 heavy with Q54K, K67E
chain: B1 chain
light: B1 light
B8: CE115HA000 K64Q one-arm antibody (antibody, human IgG1, kappa, L234A L235A, N297A, name in Kabat numbering)
heavy: B1 heavy with Q54K, K67Q
chain: B1 chain
light: B1 light
B9: CE115HA000 K64S one-arm antibody (antibody, human IgG1, kappa, L234A L235A, N297A, name in Kabat numbering)
heavy: B1 heavy with Q54K, K67S
chain: B1 chain
light: B1 light
B10: CE115HA000 K75R one-arm antibody (antibody, human IgG1, kappa, L234A L235A, N297A, name in Kabat numbering)
heavy: B1 heavy with Q54K, K78R
chain: B1 chain
light: B1 light
B11: CE115HA000 K75T one-arm antibody (antibody, human IgG1, kappa, L234A L235A, N297A, name in Kabat numbering)
heavy: B1 heavy with Q54K, K78T
chain: B1 chain
light: B1 light
B12: CE115HA000 L78I one-arm antibody (antibody, human IgG1, kappa, L234A L235A, N297A, name in Kabat numbering)
heavy: B1 heavy with Q54K, L81I
chain: B1 chain
light: B1 light
B13: CE115HA000 N31A one-arm antibody (antibody, human IgG1, kappa, L234A L235A, N297A, name in Kabat numbering)
heavy: B1 heavy with N31A, Q54K
chain: B1 chain
light: B1 light
notes: one-arm antibody: altered VH on pE22Hh, Fc-only chain Kn010G3, GLS3000 on kappa; the same build holds for m3 to m260
B14: CE115HA000 N31D one-arm antibody (antibody, human IgG1, kappa, L234A L235A, N297A, name in Kabat numbering)
heavy: B1 heavy with N31D, Q54K
chain: B1 chain
light: B1 light
B15: CE115HA000 N31F one-arm antibody (antibody, human IgG1, kappa, L234A L235A, N297A, name in Kabat numbering)
heavy: B1 heavy with N31F, Q54K
chain: B1 chain
light: B1 light
B16: CE115HA000 N31G one-arm antibody (antibody, human IgG1, kappa, L234A L235A, N297A, name in Kabat numbering)
heavy: B1 heavy with N31G, Q54K
chain: B1 chain
light: B1 light
B17: CE115HA000 N31H one-arm antibody (antibody, human IgG1, kappa, L234A L235A, N297A, name in Kabat numbering)
heavy: B1 heavy with N31H, Q54K
chain: B1 chain
light: B1 light
B18: CE115HA000 N31I one-arm antibody (antibody, human IgG1, kappa, L234A L235A, N297A, name in Kabat numbering)
heavy: B1 heavy with N31I, Q54K
chain: B1 chain
light: B1 light
B19: CE115HA000 N31K one-arm antibody (antibody, human IgG1, kappa, L234A L235A, N297A, name in Kabat numbering)
heavy: B1 heavy with N31K, Q54K
chain: B1 chain
light: B1 light
B20: CE115HA000 N31Q one-arm antibody (antibody, human IgG1, kappa, L234A L235A, N297A, name in Kabat numbering)
heavy: B1 heavy with N31Q, Q54K
chain: B1 chain
light: B1 light
B21: CE115HA000 N31R one-arm antibody (antibody, human IgG1, kappa, L234A L235A, N297A, name in Kabat numbering)
heavy: B1 heavy with N31R, Q54K
chain: B1 chain
light: B1 light
B22: CE115HA000 N31S one-arm antibody (antibody, human IgG1, kappa, L234A L235A, N297A, name in Kabat numbering)
heavy: B1 heavy with N31S, Q54K
chain: B1 chain
light: B1 light
B23: CE115HA000 N31W one-arm antibody (antibody, human IgG1, kappa, L234A L235A, N297A, name in Kabat numbering)
heavy: B1 heavy with N31W, Q54K
chain: B1 chain
light: B1 light
B24: CE115HA000 N31Y one-arm antibody (antibody, human IgG1, kappa, L234A L235A, N297A, name in Kabat numbering)
heavy: B1 heavy with N31Y, Q54K
chain: B1 chain
light: B1 light
B25: CE115HA000 N53A one-arm antibody (antibody, human IgG1, kappa, L234A L235A, N297A, name in Kabat numbering)
heavy: B1 heavy with Q54K, N56A
chain: B1 chain
light: B1 light
B26: CE115HA000 N53D one-arm antibody (antibody, human IgG1, kappa, L234A L235A, N297A, name in Kabat numbering)
heavy: B1 heavy with Q54K, N56D
chain: B1 chain
light: B1 light
B27: CE115HA000 N53G one-arm antibody (antibody, human IgG1, kappa, L234A L235A, N297A, name in Kabat numbering)
heavy: B1 heavy with Q54K, N56G
chain: B1 chain
light: B1 light
B28: CE115HA000 N53H one-arm antibody (antibody, human IgG1, kappa, L234A L235A, N297A, name in Kabat numbering)
heavy: B1 heavy with Q54K, N56H
chain: B1 chain
light: B1 light
B29: CE115HA000 N53I one-arm antibody (antibody, human IgG1, kappa, L234A L235A, N297A, name in Kabat numbering)
heavy: B1 heavy with Q54K, N56I
chain: B1 chain
light: B1 light
B30: CE115HA000 N53K one-arm antibody (antibody, human IgG1, kappa, L234A L235A, N297A, name in Kabat numbering)
heavy: B1 heavy with Q54K, N56K
chain: B1 chain
light: B1 light
B31: CE115HA000 N53Q one-arm antibody (antibody, human IgG1, kappa, L234A L235A, N297A, name in Kabat numbering)
heavy: B1 heavy with Q54K, N56Q
chain: B1 chain
light: B1 light
B32: CE115HA000 N53S one-arm antibody (antibody, human IgG1, kappa, L234A L235A, N297A, name in Kabat numbering)
heavy: B1 heavy with Q54K, N56S
chain: B1 chain
light: B1 light
B33: CE115HA000 N53W one-arm antibody (antibody, human IgG1, kappa, L234A L235A, N297A, name in Kabat numbering)
heavy: B1 heavy with Q54K, N56W
chain: B1 chain
light: B1 light

Target: T1, CD3 epsilon homodimer protein (UniProt P07766 23-126)
T1 construct: immobilized on Sensor chip CM4 by amine coupling; also called CD3 (CD3 epsilon)
T1 sequence (P07766 23-126): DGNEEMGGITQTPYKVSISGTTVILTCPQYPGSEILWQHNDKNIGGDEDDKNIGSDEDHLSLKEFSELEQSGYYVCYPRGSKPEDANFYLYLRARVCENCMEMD
Assay: SPR (Biacore T200), CD3 epsilon homodimer on CM4 chip, one-arm antibody as analyte, 25 C;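 also: homodimer attached to the sensor surface via amine coupling, HBS-EP+ used as running buffer during binding runs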

| Binder | ratio of amounts bound (altered form / CE115HA000) |
| --- | --- |
| B1 | 0.6 |
| B2 | 1.11 |
| B3 | 0.68 |
| B4 | 0.74 |
| B5 | 0.82 |
| B6 | 0.72 |
| B7 | 0.74 |
| B8 | 0.89 |
| B9 | 0.84 |
| B10 | 1.01 |
| B11 | 0.84 |
| B12 | 1.34 |
| B13 | 0.5 |
| B14 | 0.37 |
| B15 | 0.62 |
| B16 | 0.39 |
| B17 | 0.68 |

| Binder | ratio of amounts bound (altered form / CE115HA000) |
| --- | --- |
| B18 | 0.81 |
| B19 | 1.01 |
| B20 | 0.49 |
| B21 | 1.14 |
| B22 | 0.81 |
| B23 | 0.63 |
| B24 | 0.64 |
| B25 | 0.7 |
| B26 | 0.39 |
| B27 | 0.5 |
| B28 | 0.76 |
| B29 | 0.68 |
| B30 | 0.78 |
| B31 | 1.1 |
| B32 | 0.83 |
| B33 | 0.88 |
